Measurements published in PMC9371926 (Nucleic Acids Research, 2022).

T1: Methanocaldococcus jannaschii (Mja) RPP30 (Methanocaldococcus jannaschii, UniProt Q58539 1-232)
T1 sequence: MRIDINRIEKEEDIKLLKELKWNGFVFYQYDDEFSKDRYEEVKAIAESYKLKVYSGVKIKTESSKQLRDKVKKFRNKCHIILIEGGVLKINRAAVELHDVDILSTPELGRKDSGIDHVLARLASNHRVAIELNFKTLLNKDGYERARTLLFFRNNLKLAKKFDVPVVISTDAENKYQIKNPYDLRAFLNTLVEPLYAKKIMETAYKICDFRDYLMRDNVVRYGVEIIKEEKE

T2: Methanocaldococcus jannaschii (Mja) RPP21 (Methanocaldococcus jannaschii, UniProt Q58372 1-128)
T2 sequence: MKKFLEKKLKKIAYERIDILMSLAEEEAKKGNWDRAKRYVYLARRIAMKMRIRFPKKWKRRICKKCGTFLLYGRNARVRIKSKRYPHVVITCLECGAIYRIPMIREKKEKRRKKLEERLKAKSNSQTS


How the values were obtained:
Assay in all cases: native MS
[1] = biological target: T1, Methanocaldococcus jannaschii (Mja) …
native MS = biological target: the molecule itself
[2] = biological target: T2, Methanocaldococcus jannaschii (Mja) …

Row | Binder | binding result (native MS) | also measured
1 | Methanocaldococcus jannaschii (Mja) POP5 (natural protein) MIEMLKTLPPTLREKKRYIAFKILYDEELKEGEVVNLIRKAVLEYYGSWGTSKANPWLVYYDFPYGILRCQRDNVDYVKASLILIREFKEKPVNIICLGVSGTIRKAKIKFLGIKKPKRWFVIRRERLKAKKQK |  | binding result [1]: binds
2 | Mja POP5·RPP30 binary complex (complex, Methanocaldococcus jannaschii) chain 1: MIEMLKTLPPTLREKKRYIAFKILYDEELKEGEVVNLIRKAVLEYYGSWGTSKANPWLVYYDFPYGILRCQRDNVDYVKASLILIREFKEKPVNIICLGVSGTIRKAKIKFLGIKKPKRWFVIRRERLKAKKQK chain 2: MRIDINRIEKEEDIKLLKELKWNGFVFYQYDDEFSKDRYEEVKAIAESYKLKVYSGVKIKTESSKQLRDKVKKFRNKCHIILIEGGVLKINRAAVELHDVDILSTPELGRKDSGIDHVLARLASNHRVAIELNFKTLLNKDGYERARTLLFFRNNLKLAKKFDVPVVISTDAENKYQIKNPYDLRAFLNTLVEPLYAKKIMETAYKICDFRDYLMRDNVVRYGVEIIKEEKE | binds | 
3 | Methanocaldococcus jannaschii (Mja) RPP29 (natural protein) MITPHNILRHELIGLKVEIVEAKNKAMIGIKGKVVDETRNTLVIEKEDGREVVIPKDIAVFLFQLKGCKVKVDGRLLIGRPEERLKKKIKILYPY |  | binding result [2]: binds
4 | Mja RPP21·RPP29 binary complex (complex, Methanocaldococcus jannaschii) chain 1: MKKFLEKKLKKIAYERIDILMSLAEEEAKKGNWDRAKRYVYLARRIAMKMRIRFPKKWKRRICKKCGTFLLYGRNARVRIKSKRYPHVVITCLECGAIYRIPMIREKKEKRRKKLEERLKAKSNSQTS chain 2: MITPHNILRHELIGLKVEIVEAKNKAMIGIKGKVVDETRNTLVIEKEDGREVVIPKDIAVFLFQLKGCKVKVDGRLLIGRPEERLKKKIKILYPY | binds | 
